Results on one molecule are retold here after US20060141546A1, “Bacterial test method by glycated label binding” (priority 2002, published 2006).

For assay [1], the system named is bacteria. In words: Effect of divalent cations on ALP binding to bacteria (Example 7, Table 5, FIG. 12). How it is done: Bacterial cells (1 to 4.5×10^7 cells/mL) were washed twice with water after centrifugation to separate cells into a packed pellet from the supernatant liquid. The washed cells in pellet form were suspended in 20 μL of EPPS buffer (50 mM at pH 8.0) and 30 μL of water. […]
The mixture of glycated protein and bacterial cells was left at 25° C. for 15 minutes. The mixture was then centrifuged at 30,000 rpm for 30 minutes after which the bacterial cells formed a pellet at the bottom of the tube and were washed with water 4-5 times (50 μL). Centrifugation allows separation of glycoprotein bound to the bacteria cells from unbound glycated protein(s).
After washing, the bacterial pellets were suspended in 50 μL of borate buffer (25 mM at pH 9.0). A 5 μL aliquot of the suspension was assayed for detection of ALP binding by adding 5 μL of para-nitrophenol phosphate (PNPP, 100 mM), 50 μL sodium borate buffer (25 mM at pH 9.0) and 140 μL of water. […] The color was read at 405 nm using an ELISA plate reader between 15-30 min; the absorbance is directly proportional to the amount of ALP bound to the bacteria cell.

Assay [2] relates to Coagulase negative staphylococcus sp. In words: ALP binding compared to Sf (Table 1). How it is done: (§1) Bacterial cells ([…] to 10^8 cells/mL) were washed twice with water after centrifugation to separate the cells into a packed pellet from supernatant liquid. The washed cells in pellet form were suspended in 40 μL water and 10 μL of aqueous bovine intestinal alkaline phosphatase (ALP) was added (2 μg or […]). The mixture was left at room temperature for 30 minutes and then centrifuged, after which the bacterial pellets were washed with water 4-5 times (50 μL). All the washing supernatants were combined. A blank without cells was diluted in the same way. The final pellets were suspended in 50 μl water and both supernatants and cell suspensions were assayed for detection of ALP binding using 2.5 μl of 0.005 M para-nitrophenol phosphate (PNPP) in Tris or EPPS buffer at pH 7.5. The hydrolysis of the substrate results in yellow (PNPP) or blue-green (BCIP) color that is directly proportional to the amount of ALP bound to the bacteria. Alkaline phosphatase (ALP) activity was tested using common substrates such as BCIP (bromo-chloro-indolyl-phosphate) forming a blue/green color in Tris buffer, pH 7.5. After 10 minutes at room temperature the samples were read in a plate reader (Biotek Powerwave Absorbance Reader) at a wavelength of 405 nm. The parallel set of bacteria was run without addition of ALP as controls.
(§2) The bacteria used to illustrate the invention represent the extremes of gram positive (S. facaelis) and gram negative (E. coli) bacteria. […] The nature of the difference in the cell walls is greatest between the gram negative and positive forms of bacteria.

The next assay has as its system Enterococcus sp. In words: ALP binding compared to Sf (Table 1). As for the experimental part:
as §1, §2

For a further assay, the system named is Group B streptococcus. In words: ALP binding compared to Sf (Table 1). How it is done: as §1, §2
The test system of assay [3] is Staphylococcus aureus & saprophyicus. In words: ALP binding compared to Sf (Table 1). As for the experimental part: as §1, §2
The next assay deals with Lactobacillus. In words: ALP binding compared to Sf (Table 1). How it is done:
as §1, §2

Assay [4] relates to Yeasts including Candida albicans. In words: ALP binding compared to Sf (Table 1). How it is done:
as §1, §2

The test system of the next assay is Streptococcus viridans. In words: ALP binding compared to Sf (Table 1). As for the experimental part:
as §1, §2

Assay [5] concerns Escherichia Coli (E. Coli). In words: Bacteria assay by binding of intestinal ALP (Example 1, FIG. 8, Table 1). As for the experimental part:
as §1

Assay [6] has as its system gram negative and positive bacteria. In words: Bacteria assay by binding of intestinal ALP, all strains (Example 1). The settings on record: for ALP binding to bacterial strains tested: FIG. 8, Table 1. How it is done: as §1, §2
The test system of another assay is Proteus mirabilis. In words: ALP binding compared to E. coli (Table 1). How it is done:
as §1, §2

Another assay relates to Serratia marcescens. In words: ALP binding compared to E. coli (Table 1). How it is done: as §1, §2
In the next assay the test system is Klebsiella pneumoniae. In words: ALP binding compared to E. coli (Table 1). How it is done:
as §1, §2

The test system of a further assay is Diphtheroids (gnb). In words: ALP binding compared to E. coli (Table 1). As for the experimental part: as §1, §2
A further assay concerns Pseudomonas aeruginosa. In words: ALP binding compared to E. coli (Table 1). How it is done:
as §1, §2

Assay [7] has as its system bacteria. In words: Saturation binding / Scatchard analysis of glycoprotein binding to bacteria. The settings on record: ALP to bacteria. From the text:
There are several methods used to measure binding affinity. The methods of Lineweaver-Burke and Eadie-Hofstee are most popular. The data is used to create a Scatchard plot, where the X axis is the glycoprotein bound and the Y axis is glycoprotein bound divided by the free glycoprotein. From this graph the number of binding sites (also called Bmax, receptor number) is the X intercept and binding constant (also called affinity constant, Kd, or the equilibrium dissociation constant) is the negative reciprocal of the slope. Changes in slope reflect changes in the nature of binding sites and are often used to separate high affinity binding from low affinity binding sites. Commercially available software (GraphPad software Inc) exist to perform this analysis. Only high affinity binding was used in the instant experiments.
Experimentally, saturation binding experiments are used measure glycoprotein binding at equilibrium at various concentrations of the glycoprotein. The saturation curve is a first constructed to plot the concentration of glycoprotein ligand on the X axis versus the all glycoprotein bound on the cell expressed as concentration of glycoprotein bound/number of bacteria cells on the Y axis. […] This same data is next plotted as a Scatchard plot with the number of binding sites and binding constants determined for the pairs of glycoprotein and bacteria tested. […]

Assay [8] deals with Staphylococcus aureus (Sf) strains # 3 and #6. In words: Bacteria assay by binding of intestinal ALP (Example 1, FIG. 8). As to conditions: gram positive, strains # 3 and #6, FIG. 8. As for the experimental part: as §1

B1: ALP: bovine intestinal alkaline phosphatase, glycoprotein enzyme that binds bacteria and serves as label (protein, UniProt P19111 20-506, looked up)
Intestinal-type alkaline …: LVPVEEEDPAFWNRQAAQALDVAKKLQPIQTAAKNVILFLGDGMGVPTVTATRILKGQMNGKLGPETPLAMDQFPYVALSKTYNVDRQVPDSAGTATAYLCGVKGNYRTIGVSAAARYNQCKTTRGNEVTSVMNRAKKAGKSVGVVTTTRVQHASPAGAYAHTVNRNWYSDADLPADAQMNGCQDIAAQLVNNMDIDVILGGGRKYMFPVGTPDPEYPDDASVNGVRKRKQNLVQAWQAKHQGAQYVWNRTALLQAADDSSVTHLMGLFEPADMKYNVQQDHTKDPTLQEMTEVALRVVSRNPRGFYLFVEGGRIDHGHHDDKAYMALTEAGMFDNAIAKANELTSELDTLILVTADHSHVFSFGGYTLRGTSIFGLAPSKALDSKSYTSILYGNGPGYALGGGSRPDVNDSTSEDPSYQQQAAVPQASETHGGEDVAVFARGPQAHLVHGVEEETFVAHIMAFAGCVEPYTDCNLPAPTTATSIPD
In the case of B1, the “O.D. at 405 nm, With ALP” value in the assay on bacteria [1] (No. cation) is reported as 0.30 O.D. Besides, in the assay on bacteria [1] (different strains of bacteria, 1 mM Zn^2+, FIG. 12), the “bacteria concentration at which ALP binding could be monitored” value is given as 10^5. Besides, the “ALP binding relative to sf.” value in [2] is listed as 88%; in the assay on Enterococcus sp., 100%; with Group B streptococcus, 96%; in assay [3] it was 100%; with Lactobacillus, 100%; in [4] it was 93%. Further, the “ALP binding relative to sf.” value in the assay on Streptococcus viridans stood at 102%. Further, the “ALP binding relative to E. coli” value in [5] (Escherichia coli) came to 100%; in the assay with Proteus mirabilis it was 104%; in the assay on Serratia marcescens, 101%; in the assay with Klebsiella pneumoniae, 105%; in the assay with Diphtheroids (gnb), 91%; in the assay with Pseudomonas aeruginosa, 99%. Moreover, the “ALP binding to bacteria (ALP activity of suspended cells after ALP treatment and washings)” value was “found to bind the ALP” in [5] (gram negative, strains # 9 and 14, FIG. 8); “found to bind the ALP” in assay [8]. In addition, the “ALP binding to bacterial strains tested” value in [6] was “binding occurred to all other gram negative and positive bacteria”; in [6] (listed as intestinal ALP), “binding to all bacterial strains tested”. Moreover, the “amount of ALP bound or activity generated versus amount of bacteria cells” value in [6] (FIG. 9) is given as “directly proportional to the amount of bacteria cells present”. Also, the “difference of ALP binding between strains relative to S. facaelis or E. coli” value in [6] (changes of strain among gram negative and positive bacteria) is at most 12%. In the assay on bacteria [7] (Scatchard analysis, high affinity binding), the binding constant was 5×10^+6. Moreover, the “number of binding sites” value in the assay on bacteria [7] (estimated from the Scatchard analysis) is on record as 590.
